From the supplement of paper PMC5998384

Columns and labels:
HeLa Kyoto [1] = assay: solubility change mitosis vs G1/S (difference of NP-40 vs SDS log2 ratios) (log2 ratio difference); higher = more soluble in mitosis
HeLa Kyoto [2] = assay: solubility in G1/S (NP-40 vs SDS abundance) (log2 ratio); higher = more soluble; conditions: cell cycle stage: G1/S
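For solubility change mitosis vs G1/S (difference of NP-40 vs SDS log2 ratios) in this document: synchronized HeLa Kyoto cells (double thymidine block for G1/S, nocodazole release for mitosis), protein amounts in NP-40 versus SDS lysates quantified by mass spectrometry, three biological replicates.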
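For solubility in G1/S (NP-40 vs SDS abundance) in this document: HeLa Kyoto cells arrested at G1/S by double thymidine block, proteins quantified by TMT10plex mass spectrometry in mild NP-40 versus SDS extracts, three biological replicates.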

Sequence	solubility change mitosis (log2) (HeLa Kyoto [1])	solubility in G1/S (log2) (HeLa Kyoto [2])
MTPLVSRLSRLWAIMRKPRAAVGSGHRKQAASQEGRQKHAKNNSQAKPSACDGMIAECPGAPAGLARQPEEVVLQASVSSYHLFRDVAEVTAFRGSLLSWYDQEKRDLPWRRRAEDEMDLDRRAYAVWVSEVMLQQTQVATVINYYTGWMQKWPTLQDLASASLEEVNQLWAGLGYYSRGRRLQEGARKVVEELGGHMPRTAETLQQLLPGVGRYTAGAIASIAFGQATGVVDGNVARVLCRVRAIGADPSSTLVSQQLWGLAQQLVDPARPGDFNQAAMELGATVCTPQRPLCSQCPVESLCRARQRVEQEQLLASGSLSGSPDVEECAPNTGQCHLCLPPSEPWDQTLGVVNFPRKASRKPPREESSATCVLEQPGALGAQILLVQRPNSGLLAGLWEFPSVTWEPSEQLQRKALLQELQRWAGPLPATHLRHLGEVVHTFSHIKLTYQVYGLALEGQTPVTTVPPGARWLTQEEFHTAAVSTAMKKVFRVYQGQQPGTCMGSKRSQVSSPCSRKKPRMGQQVLDNFFRSHISTDAHSLNSAAQ [MUTYH]	-0.0934	0.104
MDPGWGQRDVGWAALLILFAASLLTVFAWLLQYARGLWLARARGDRGPGPALAGEPAGSLRELGVWRSLLRLRATRAGAAEEPGVRGLLASLFAFKSFRENWQRAWVRALNEQACRNGSSIQIAFEEVPQLPPRASISHVTCVDQSEHTMVLRCQLSAEEVRFPVSVTQQSPAAVSMETYHVTLTLPPTQLEVNLEEIPGEGLLISWAFTDRPDLSLTVLPKLQARERGEEQVELSTIEELIKDAIVSTQPAMMVNLRACSAPGGLVPSEKPPMMPQAQPAIPRPNRLFLRQLRASHLGNELEGTEELCCVAELDNPMQQKWTKPARAGSEVEWTEDLALDLGPQSRELTLKVLRSSSCGDTELLGQATLPVGSPSRPLSRRQLCPLTPGPGKALGPAATMAVELHYEEGSPRNLGTPTSSTPRPSITPTKKIELDRTIMPDGTIVTTVTTVQSRPRIDGKLDSPSRSPSKVEVTEKTTTVLSESSGPSNTSHSSSRDSHLSNGLDPVAETAIRQLTEPSGRVAKKTPTKRSTLIISGVSKVPIAQDELALSLGYAASLEASVQDDAGTSGGPSSPPSDPPAMSPGPLDALSSPTSVQEADETTRSDISERPSVDDIESETGSTGALETRSLKDHKVSFLRSGTKLIFRRRPRQKEAGLSQSHDDLSNATATPSVRKKAGSFSRRLIKRFSFKSKPKANGNPSPQL [C2CD2L]	-0.0722	-0.0395
MAAPVGPVKFWRPGTEGPGVSISEERQSLAENSGTTVVYNPYAALSIEQQRQKLPVFKLRNHILYLIENYQTVVIVGETGCGKSTQIPQYLAEAGWTAEGRVVGVTQPRRVAAVTVAGRVAEERGAVLGHEVGYCIRFDDCTDQLATRIKFLTDGMLVREMMVDPLLTKYSVIMLDEAHERTLYTDIAIGLLKKIQKKRGDLRLIVASATLDADKFRDFFNQNETSDPARDTCVILTVEGRTFPVDIFYLQSPVPDYIKSTVETVVKIHQTEGDGDVLAFLTGQEEVETVVSMLIEQARALARTGMKRHLRVLPMYAGLPSFEQMKVFERVSRSVRKVIVATNVAETSITISGIVYVIDCGFVKLRAYNPRTAIECLVVVPVSQASANQRAGRGGRSRSGKCYRLYTEEAFDKLPQSTVPEMQRSNLAPVILQLKALGIDNVLRFHFMSPPPAQSMVQALELLYALGGLDKDCRLTEPLGMRIAEFPLNPMFAKMLLESGNFGCSQEILSIAAMMQIQNIFVVPPNQKSHAIRVHRKFAVEEGDHLTMLNIYEAFIKHNKDSKWCQEHFLNYKGLVRAATVREQLKKLLVKFQVPRKSSEGDPDLVLRCIVSGFFANAARFHSTGAYRTIRDDHELHIHPASVLYAEKPPRWVIYNEVIQTSKYYMRDVTAIESAWLLELAPHFYQQGTHLSLKAKRAKVQDP [DHX35]	0.261	-0.538
MAEAGAGLSETVTETTVTVTTEPENRSLTIKLRKRKPEKKVEWTSDTVDNEHMGRRSSKCCCIYEKPRAFGESSTESDEEEEEGCGHTHCVRGHRKGRRRATLGPTPTTPPQPPDPSQPPPGPMQH [PPP1R11]	0.00513	-0.804
